Patent US11225653B2, “Methods and compounds for reducing threonyl-tRNA synthetase activity” (University of Vermont and State Agricultural College, priority 2012, dated 2022)
“Also recorded” adds a separate entry of the source.

B1: TARS: N-terminal His6-tagged human threonyl-tRNA synthetase expressed and purified from E. coli (protein, UniProt P26639 1-723, looked up)
Threonine--tRNA ligase 1, …: MFEEKASSPSGKMGGEEKPIGAGEEKQKEGGKKKNKEGSGDGGRAELNPWPEYIYTRLEMYNILKAEHDSILAEKAEKDSKPIKVTLPDGKQVDAESWKTTPYQIACGISQGLADNTVIAKVNNVVWDLDRPLEEDCTLELLKFEDEEAQAVYWHSSAHIMGEAMERVYGGCLCYGPPIENGFYYDMYLEEGGVSSNDFSSLEALCKKIIKEKQAFERLEVKKETLLAMFKYNKFKCRILNEKVNTPTTTVYRCGPLIDLCRGPHVRHTGKIKALKIHKNSSTYWEGKADMETLQRIYGISFPDPKMLKEWEKFQEEAKNRDHRKIGRDQELYFFHELSPGSCFFLPKGAYIYNALIEFIRSEYRKRGFQEVVTPNIFNSRLWMTSGHWQHYSENMFSFEVEKELFALKPMNCPGHCLMFDHRPRSWRELPLRLADFGVLHRNELSGALTGLTRVRRFQQDDAHIFCAMEQIEDEIKGCLDFLRTVYSVFGFSFKLNLSTRPEKFLGDIEVWDQAEKQLENSLNEFGEKWELNSGDGAFYGPKIDIQIKDAIGRYHQCATIQLDFQLPIRFNLTYVSHDGDDKKRPVIVHRAILGSVERMIAILTENYGGKWPFWLSPRQVMVVPVGPTCDEYAQKVRQQFHDAKFMADIDLDPGCTLNKKIRNAQLAQYNFILVVGEKEKISGTVNIRTRDNKVHGERTISETIERLQQLKEFRSKQAEEEF
modifications: N-terminal His6 tag
notes: N-terminal His6-tagged human threonyl-tRNA synthetase expressed and purified from E. coli

How the values were obtained:
[1] = test system: chorioallantoic membrane (CAM); assay: Chick chorioallantoic membrane (CAM) assay; assay type: in vivo, chicken
Protocol: Chick Chorioallantoic Membrane Assay-Fertilized chicken eggs (Sunrise Farms, Catskill, N.Y.) day 1-2 post-laying were incubated in a humidified incubator at 37° C. for 72 h. Cleaned eggs were cracked and plated in a sterile 10 cm^2 tissue culture-treated dish and incubated at 37° C. for another 7 days. On developmental day 10, 1 mm^3 sterile gelatin sponge pieces (Surgifoam®; Johnson & Johnson Wound Management, Somerville, N.J.) were placed within the outer one-third of the membrane between large vessels. 40 μg/ml human bFGF and 2 μg/mL human VEGF were used as pro-angiogenic control compounds; 100 μg/mL retinoic acid (Sigma-Aldrich, St. Louis, Mo.) diluted in phosphate-buffered saline (PBS) was used as an angiostatic control. All compounds were applied in 10 μl to the CAM every 24 h for 72 h. Images were taken using a Leica MZ6 stereomicroscope every 24 h. Compounds were scored according to a modified version of Intensity Scoring as previously described (Ribatti, Nico et al. 2006). Briefly, each experimental condition was given a blinded score from 0-5 based on the change in the extent of vessel convergence and formation in proximity to the sponge from day 0 to day 3. Total score is averaged individual experimental condition scores from at least 15 replicates.
Fertilized chicken embryos were cultured ex-ova and, starting at developmental day 10, agents were applied daily to gelfoam sponges on the CAM. Images were recorded daily over 72 h and scored blindly according to a modified version Intensity Scoring as previously described (Ribatti, Nico et al. 2006). Additional details regarding methods are provided in the Methods and Materials section of Example 1.

[2] = test system: Human umbilical vein endothelial cells (HUVECs); assay: In vitro endothelial tube formation assay; assay type: cell-based
Protocol: In vitro Tube Formation Assay-Tube formation assays were performed as described (Arnaoutova and Kleinman 2010; Cassavaugh, Hale et al. 2011). Human Umbilical Vein Endothelial Cells (HUVECs) were seeded in 48-well plates (1.5×10^4 cells/well) coated with 100 μl of Matrigel™ Basement Membrane Matrix Growth Factor Reduced (BD Biosciences, San Jose, Calif.) and incubated in Clonetics® EGM®-2 complete media (Lonza, Annandale, N.J.) or EGM®-2 with reduced serum (0.2% fetal bovine serum). Cells were incubated at 37° C. for 6 h then fixed in 10% formalin. Fixed samples were imaged by phase-contrast microscopy or stained with Oregon Green 488 Phalloidin (Molecular Probes, Eugene, Oreg.) then imaged with fluorescence microscopy (2× objective). Number of tubes and tube lengths (in pixels) were quantified using the Simple Neurite Tracer (Longair, Baker et al. 2011) plug-in on ImageJ software (NIH). Statistical analysis of one-way ANOVA was performed with GraphPad Software. Multiple comparisons were performed using the Tukey Test.

HUVECs = assay: Endothelial cell proliferation assay (alamarBlue); assay type: cell-based, human
Protocol: Endothelial Cell Proliferation Assay—The […] alamarBlue® (Invitrogen) reagent was used to assess cell proliferation (Ahmed, Gogal et al. 1994). HUVECs were seeded in a 96-well dish (1×10^3 cells/well) and grown for 48 h in EGM®-2 media. Cells were incubated in 0.2% FBS EGM®-2 media or EGM®-2 complete media as indicated; VEGF (50 ng/ml) and media alone served as controls. After 48 h, 72 h, or 96 h in culture, 10 μl/well premixed alamarBlue® (Invitrogen) was added and after 3 h at 37° C. the amount of reduced alamarBlue® was quantified by fluorescence (excitation at 530 nm, emission at 590 nm) on a microplate reader (Synergy™ HT, BioTek, Winooski, Vt.).

human TARS [3] = biological target: T1, human TARS (Homo sapiens, UniProt P26639); assay: GTPase assay (GTP hydrolysis); assay type: biochemical; details: 10 μM BC194 or 10 μM borrelidin
T1 construct: His6 (N); made in house; host or cells: E. coli Rosetta 2(DE3)pLysS, plasmid pET28a hctThrRS
T1 sequence (P26639 1-723): B1 Threonine--tRNA ligase 1, …

HUVEC = assay: Transwell migration assay; assay type: cell-based, human; details: 4 h
Protocol: Transwell Migration Assay—Migration was assessed using transwell inserts (Svensson, Kucharzewska et al. 2011). HUVEC cultures were serum-depleted overnight in Clonetics® EGM®-2 modified with 0.2% fetal bovine serum then 5×10^4 cells were plated in 90% EBM®-2, 10% EGM®-2 in the upper chamber of 0.2% gelatin-coated 24-well 8 μm Transwell® inserts (Corning, Tewksbury, Mass.) with 90% EBM®-2, 10% EGM®-2 media plus 50 ng/ml VEGF, 1-100 nM TARS protein, or 10 nM BC194 in the lower chamber. Cultures were incubated for 4 h, fixed in 10% formalin, and stained with 10 μg/ml DAPI solution (Roche) following removal of cells from the top layer of the chamber with a cotton swab. Migrated cells were imaged using a 4× objective on the Olympus 1×70 Inverted microscope (Olympus). DAPI-stained nuclei were counted using ImageJ software.

human TARS [4] = biological target: T1, human TARS; assay: Ap4A formation assay; assay type: biochemical; details: FIGS. 17C and 17D, 10 μM compound
Protocol: (§1) TARS purification and active site determination were performed as previously described (Williams, Mirando et al., 2013). TARS non-canonical catalytic activities were characterized using modifications from published methods (Guo, Chong et al. 2009). For Ap4A reactions 5 μM of wildtype TARS or R442A TARS were incubated for 10 minutes on ice with 2 mM threonine, and 10 μM BC194 or borrelidin as indicated in FIG. 17C. Reactions were initiated using 2 mM ATP with trace amounts of [α-^32P]-ATP as label. At specific time points aliquots were quenched in 3 volumes of 0.1% SDS, 400 mM sodium acetate and resolved on polyethyleneimine-cellulose plates by thin-layer chromatography (TLC) in 3 M NH4 (SO4)2 and 2% EDTA. Radioactive counts were identified by phosphorimaging and products quantified as fractions of total ATP added. The quantitation of product was normalized to take into account the fact that each Ap4A molecule has two equivalents of radioactive phosphorus.

human TARS [5] = assay: GTPase assay (GTP hydrolysis); assay type: biochemical; details: 2 mM GTP
human TARS [6] = assay: Ap4A formation assay; assay type: biochemical; details: 5 μM enzyme, 2 mM threonine, 2 mM ATP
Protocol: as §1

human TARS [7] = assay: Steady state aminoacylation assay; assay type: biochemical; details: purified protein
Protocol: Steady State Aminoacylation Assay-The aminoacylation activities of the TARS constructs were determined using modifications to established procedures ([…] et al 2008). Briefly, reaction mixtures consisted of 20 mM Tris-HCl pH 8.0, 100 mM KCl, 10 mM MgCl2, 1 mM dithiothreitol, 2 mM ATP, 2.5 U pyrophosphatase (Roche), 80 μM threonine, 20 μM [14C]-threonine, and 5 μM of E. coli or human […]. Reactions were initiated with the addition of 0.25-0.75 μM TARS and run at 37° C. Aliquots were taken at varying time points and spotted onto Whatmann 3MM paper filters pre-soaked in 5% trichloroacetic acid (TCA). Upon completion, the filters were washed 3 times in excess TCA, once in 95% ethanol, and dried under a heating lamp. The formation of […] was detected by scintillation counter and the activity determined by linear regression of […] formed per active site per unit time.

human TARS [8] = assay: Ap4G formation assay; assay type: biochemical; details: 2 mM ATP, 2 mM threonine, 2 mM GTP

Row | Molecule | inhibition of vessel formation on the CAM ([1]; daily application to gel sponge, basal, bFGF (40 μg/ml) or VEGF (2 μg/ml) stimulated) | tube (branch) length ([2]; HUVECs on Matrigel, range of BC194 concentrations) | effect on VEGF proliferative response (HUVECs; 10 nM BC194, 50 ng/ml VEGF, low serum media) | change of TARS GTPase activity upon treatment (human TARS [3]) | effect on VEGF- and TARS-mediated migration (HUVEC; 10 nM BC194 with 50 ng/ml VEGF or 100 nM TARS) | inhibition of Ap4A and Ap4G synthesis (in words) (human TARS [4]) | sensitivity of protein-stimulated CAM vessel formation to BC194 ([1]; protein applied together with BC194) | vessel formation / vascularization on the CAM after applied protein ([1]; purified protein applied daily to sponge, scored over 72 h) | number of tube branches after exogenous protein ([2]; 100 nM purified recombinant human TARS in low serum media (0.2% FBS), 6 h) | cell proliferation with TARS (HUVECs; HUVECs in low serum (0.2% FBS) media) | GTP hydrolysis (human TARS [5]) | migration of endothelial cells (HUVEC; 100 nM TARS or 100 nM LARS in migration compartment) | production of Ap4A (human TARS [6]) | aminoacylation activity of the protein (human TARS [7]) | rate of Ap4G formation (human TARS [8])
1 | C[C@@H]1C[C@H](C)C[C@H](C)[C@@H](O)CC(=O)O[C@H]([C@@H]2CC[C@H]2C(=O)O)C/C=C/C=C(/C#N)[C@H](O)[C@@H](C)C1 [BC194, reference compound] | inhibited vessel formation at both the basal level and after stimulation with either bFGF or VEGF | does not affect endothelial tube branch length | did not significantly reduce the VEGF proliferative response | no observable change | reduced both the migration effects of VEGF and TARS | at least partially inhibited | – | – | – | – | – | – | – | – | –
2 | C[C@@H]1C[C@H](C)C[C@H](C)[C@@H](O)CC(=O)O[C@H]([C@@H]2CCC[C@H]2C(=O)O)C/C=C/C=C(/C#N)[C@H](O)[C@@H](C)C1 [borrelidin, reference compound] | – | – | – | no observable change | – | at least partially inhibited | – | – | – | – | – | – | – | – | –
3 | B1 | – | – | – | – | – | – | sensitive to BC194 | stimulated vessel formation; also recorded: induces in vivo angiogenesis | significantly increased the number of tube branches; also recorded: promotes angiogenesis | did not exert a significant effect on cell proliferation; also recorded: does not significantly affect cell proliferation | 0.3033 GDP/active site/min | significantly increased migration of endothelial cells; also recorded: selectively induces migration of endothelial cells | 0.1391 Ap4A/active site/min | exhibits aminoacyl synthetase activity | 0.1639 Ap4G/active site/min
